The source of these data is patent US20200282021A1.

The assay addresses GLP-1 receptor expressed on the transgenic cell line GLP1R_cAMP/luc. Briefly: cell-based or functional assay.

For Dulaglutide (TRULICITY) (Fc fusion), the EC50, cAMP-dependent luciferase reporter in GLP-1R over-expressing cells came out at 6.66 pM.
